Source: patent publication US20240392003A1 (NUMAB THERAPEUTICS, published 2024)
Where two headings read alike, the source gives them in different places.

Assays:
[1] = target: T1, human ROR1 expressed on cells (human, UniProt Q01973 30-937); assay: cell-based or functional assay
[2] = target: T1, human ROR1 expressed on cells; assay: cell-based or functional assay; remark: listed apart in the source
[3] = target: T1, human ROR1 expressed on cells; assay: cell-based or functional assay; remark: listed apart in the source
[4] = target: T2, recombinant human ROR1 protein (Fc-Tag, Acro Biosystems RO1-H5250) (human, UniProt Q01973 30-406); assay: SPR; hROR1-Fc immobilized (Avidity)
T2 construct: Bought; also called hROR1; recombinant human ROR1 ECD; not shown: Fc tag

[5] = target: T3, recombinant human CD3 epsilon extra-cellular domain protein (His-Tag, SinoBiological) (human, UniProt P07766 23-126); assay: SPR; hCD3ε immobilized, two-state fit
T3 construct: extracellular domain; Bought; also called hCD3ε; human CD3ε; not shown: His tag

[6] = target: T3, recombinant human CD3 epsilon …; assay: SPR; hCD3ε immobilized, two-state fit (Ka1)
[7] = target: T3, recombinant human CD3 epsilon …; assay: SPR; hCD3ε immobilized, two-state fit (kd1)
Protocol: Binding kinetics (including affinity) of the four MATCH4 molecules to recombinant human CD3 epsilon extra-cellular domain protein (hCD3ε; His-Tag, SinoBiological) were determined by SPR analysis on a T200 device (Biacore, Cytiva). Recombinant hCD3ε molecules were covalently immobilized to a carboxymethylated dextran surface (CM5 sensorchip; Biacore, Cytiva) and a titration series of each MATCH4 molecule was injected as analyte. After each analyte injection-cycle, every flow channel on the sensor chip was regenerated (Glycine, pH 2.0 and 3 M MgCl₂), and a new concentration of MATCH4 molecule was injected. […] The apparent dissociation (kd1) and association (kₐ₁) rate constants, the second reaction constants (kₐ₂ and kd2) and the apparent dissociation equilibrium constant (KD) were calculated with the Biacore analysis software (Biacore Evaluation software Version 3.2, Cytiva) using a two-state binding model, and the quality of the fits was monitored based on relative Chi2. The binding level was calculated as the maximum stability binding achieved normalized to the theoretical Rmax.

[8] = target: T1, human ROR1 expressed on cells; assay: flow cytometry, MDA-MB-231 cells, 1 mg/ml hSA
Protocol: After incubation at 4° C. for 1 h in presence of 1 mg/ml of human serum albumin (hSA), plates were washed and incubated with specific detection antibodies.
The binding of MATCH4 molecules to plasma membrane-based human ROR1 was assessed by flow cytometry. The calculated EC₅₀, rel.

[9] = target: T4, human ROR1 (Peprotech 160-054) (human, UniProt Q01973 30-406); assay: SPR; MATCH4 captured, hROR1 analyte (Affinity)
T4 construct: Bought, used as analyte; also called hROR1; recombinant human ROR1 protein
Protocol: Binding affinity without avidity was determined by using a proprietary anti-framework rabbit IgG (rlgG21-57-20-B11) immobilized to a carboxymethylated dextran surface (CM5 sensorchip; Biacore, Cytiva) to capture the MATCH4 molecules on the surface. A titration series of human ROR1 (Peprotech 160-054) molecule was injected as analyte. After each capture-analyte injection cycle, every flow channel on the sensor chip was regenerated (3 M MgCl₂), and a MATCH4 molecule was captured again followed by a different concentration of human ROR1. The binding kinetics to human ROR1 were measured using a multi-cycle kinetic assay, with ten analyte concentrations ranging from 0.088 to 90 nM, 1:2 diluted in running buffer (HEPES buffered saline, 0.05% Tween-20, pH 7.5; Bioconcept).
For both assays, the apparent dissociation (kd) and association (kₐ) rate constants and the apparent dissociation equilibrium constant (KD) were calculated with the Biacore analysis software (Biacore Evaluation software Version 3.2, Cytiva) using a one-to-one Langmuir binding model and quality of the fits was monitored based on Chi2 and U-value, which are measures for the quality of the curve fitting. The binding level was calculated as the maximum stability binding achieved normalized to the theoretical Rmax.

[10] = target: T1, human ROR1 expressed on cells; assay: flow cytometry, JIMT-1 cells (ROR1-positive)
[11] = target: T2, recombinant human ROR1 protein (Fc-Tag, …); assay: SPR; hROR1-Fc immobilized
Protocol: Binding kinetics (including affinity) of the nine scMATCH3 molecules to recombinant human ROR1 protein (Fc-Tag, Acro Biosystems) were determined by SPR analysis on a T200 device (Biacore, Cytiva), as described in section 1.6. Recombinant human ROR1 molecules were covalently immobilized to a carboxymethylated dextran surface (CM5 sensorchip; Biacore, Cytiva) and a titration series of each MATCH3 molecule was injected as analyte. After each analyte injection-cycle, every flow channel on the sensor chip was regenerated (Glycine, pH 2.0 and 3 M MgC₂), and a new concentration of MATCH3 molecule was injected. […] The apparent dissociation (kd) and association (kₐ) rate constants and the apparent dissociation equilibrium constant (KD) were calculated with the Biacore analysis software (Biacore Evaluation software Version 3.2, Cytiva) using a one-to-one Langmuir binding model, and quality of the fits was monitored based on Chi2 and U-value, which are measures for the quality of the curve fitting. The binding level was calculated as the maximum stability binding achieved normalized to the theoretical Rmax.

[12] = target: T3, recombinant human CD3 epsilon …; assay: SPR; hCD3ε immobilized, two-state fit; remark: listed apart in the source
Protocol: (§1) Binding kinetics (including affinity) of the nine selected scMATCH3 molecules to recombinant human CD3 epsilon extra-cellular domain protein (hCD3ε; His-Tag, SinoBiological) were determined by SPR analysis on a T200 device (Biacore, Cytiva). Recombinant hCD3ε molecules were covalently immobilized to a carboxymethylated dextran surface (CM5 sensorchip; Biacore, Cytiva) and a titration series of each MATCH3 molecule was injected as analyte. After each analyte injection-cycle, every flow channel on the sensor chip was regenerated (Glycine, pH 2.0 and 3 M MgCl₂), and a new concentration of MATCH3 molecule was injected. […] The apparent dissociation (kₐ₁) and association (kₐ₁) rate constants, the second reaction constants (kₐ₂ and kd) and the apparent dissociation equilibrium constant (KD) were calculated with the Biacore analysis software (Biacore Evaluation software Version 3.2, Cytiva) using a two-state binding model, and quality of the fits was monitored based on relative Chi2. The binding level was calculated as the maximum stability binding achieved normalized to the theoretical Rmax.

[13] = target: T3, recombinant human CD3 epsilon …; assay: SPR; hCD3ε immobilized, two-state fit (ka1)
Protocol: as §1

[14] = target: T3, recombinant human CD3 epsilon …; assay: SPR; hCD3ε immobilized, two-state fit (kd1); remark: listed apart in the source
Protocol: as §1

[15] = target: T1, human ROR1 expressed on cells; assay: flow cytometry, MDA-MB-231 cells, 1 mg/ml hSA; remark: listed apart in the source
Protocol: After incubation at 4° C. for 1 h in presence of 1 mg/mi of human serum albumin (hSA), plates were washed and incubated with specific detection antibodies.
The binding of anti-ROR1xhSAxCD3 scMATCH3 molecules to plasma membrane human ROR1 was assessed by flow cytometry.

[16] = target: T1, human ROR1 expressed on cells; assay: flow cytometry, gated on CLL patient tumor cells (ROR1 about 8k/cell), titration in the presence of human serum albumin, labelled framework-specific secondary reagent
[17] = target: T2, recombinant human ROR1 protein (Fc-Tag, …); assay: SPR; hROR1-Fc immobilized; remark: listed apart in the source
Protocol: Binding kinetics (including affinity) of the scFvs to recombinant human ROR1 protein (Fc-Tag, Acro Biosystems) were determined by SPR analysis on a T200 device (Biacore, Cytiva). Recombinant human ROR1 molecules were covalently immobilized to a carboxylmethylated dextran surface (CM5 sensorchip; Biacore, Cytiva) and a titration series of each scFv was injected as analyte. After each analyte injection-cycle, every flow channel on the sensor chip was regenerated (Glycine, pH 2.0), and a new concentration of scFv was injected. The binding kinetics to human ROR1 was measured using a multi-cycle kinetic assay, with nine analyte concentrations ranging from 0.005 to 30 nM, diluted in running buffer (HEPES buffered saline, 0.05% Tween-20, pH 7.5; Bloconcept). The apparent dissociation (kd) and association (kₐ) rate constants and the apparent dissociation equilibrium constant (KD) were calculated with the Biacore analysis software (Biacore Evaluation software version 3.2, Cytiva) using a one-to-one Langmuir binding model and quality of the fits was monitored based on Chi2 and U-value, which are measures for the quality of the curve fitting. The binding level was calculated as the maximum stability binding achieved normalized to the theoretical Rₘₐₓ.

[18] = target: T1, human ROR1 expressed on cells; assay: flow cytometry, MDA-MB-231 cells
Protocol: After three washing steps with PBS-EB, cells were centrifuged and washing buffer was aspirated. […] After incubation at 4° C. for 1 h, plates were washed three times using 100 μl of PBS-EB. Cells incubated with scFvs were re-suspended with 100 μl of Numab's framework specific detection antibody (PRO2268, rabbit 1 gG) and incubated at 4° C. for 30 min. Following a washing step, PRO2268 was subsequentially detected by the addition of anti-rabbit IgG antibody labeled with APC at a concentration of 2 μg/ml and incubated for 1 h at 4° C. […] Next, cells were washed again three times using 100 μl of PBS-EB per well. […] The fluorescence intensity of the APC channel was recorded for each sample and the geometric mean of the fluorescence intensity (MFI) was calculated. The data were single-referenced (subtracted for fluorescence intensity found on cells incubated with detection reagents only), and subsequent concentration-response curves were fitted using a 4-PL fit (GraphPad Prism software).
Plasma membrane binding of optimized scFvs to human ROR1-expressing MDA-MB-231 cells by flow cytometry was performed as described above. […] After incubation at 4° C. for 1 h, plates were washed and incubated with specific detection antibodies.

[19] = target: T1, human ROR1 expressed on cells; assay: flow cytometry, MDA-MB-231 cells; remark: listed apart in the source
Protocol: Cell suspensions were centrifuged for 5 min at 400×g and 100 μl of cell suspensions (50,000 cells) diluted in PBS-EB (1×DPBS, 2% FCS H.I., 2 mM EDTA) were added to designated wells in a non-binding 96-wel plate. After three washing steps with PBS-EB, cells were centrifuged and washing buffer was aspirated. […] After incubation at 4° C. for 1 h, plates were washed three times using 100 μl of PBS-EB. Cells incubated with scFvs were re-suspended with 100 μl of Numab's framework specific detection antibody (PRO2268, rabbit 1 gG) and incubated at 4° C. for 30 min. Following a washing step, PRO2268 was subsequentially detected by the addition of anti-rabbit IgG antibody labeled with APC at a concentration of 2 μg/ml and incubated for 1 h at 4° C. […] Next, cells were washed again three times using 100 μl of PBS-EB per well. […] The fluorescence intensity of the APC channel was recorded for each sample and the geometric mean of the fluorescence intensity (MFI) was calculated. The data were single-referenced (subtracted for fluorescence intensity found on cells incubated with detection reagents only), and subsequent concentration-response curves were fitted using a 4-PL fit (GraphPad Prism software).
Plasma membrane binding of optimized scFvs to human ROR1-expressing MDA-MB-231 cells by flow cytometry was performed as described above.

[20] = target: T5, recombinant Cynomolgus monkey CD3ε (His-Tag; SinoBiological) (Cynomolgus monkey, UniProt Q95LI5 22-117); assay: SPR; cCD3ε immobilized, two-state fit
T5 construct: Bought; also called cCD3ε; not shown: His tag
T5 sequence (looked up): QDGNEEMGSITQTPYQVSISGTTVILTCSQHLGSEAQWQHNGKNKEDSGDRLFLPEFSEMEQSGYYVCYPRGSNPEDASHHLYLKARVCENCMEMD

[21] = target: T3, recombinant human CD3 epsilon …; assay: SPR; hCD3ε immobilized, two-state fit; remark: listed apart in the source
Protocol: (§2) The apparent dissociation (kd1) and association (kₐ₁) rate constants, the second reaction constants (kₐ₂ and kd2) and the apparent dissociation equilibrium constant (KD) were calculated with the Biacore analysis software (Biacore Evaluation software Version 3.2, Cytiva) using a two-state binding model and quality of the fits was monitored based on relative Chi2. The binding level was calculated as the maximum stability binding achieved normalized to the theoretical Rmax.

[22] = target: T5, recombinant Cynomolgus monkey CD3ε …; assay: SPR; cCD3ε immobilized, two-state fit (Ka1)
Protocol: (§3) Recombinant hCD3ε molecules were covalently immobilized to a carboxymethylated dextran surface (CM5 sensorchip; Biacore, Cytiva) and a titration series of PR0726 was injected as analyte. After each analyte injection-cycle, every flow channel on the sensor chip was regenerated (Glycine, pH 2.0), and a new concentration of PR0726 was injected.
(§4) The binding kinetics to hCD3ε was measured using a multi-cycle kinetic assay, with eight analyte concentrations ranging from 0.7 to 90 nM, 1:2 diluted in running buffer (HEPES buffered saline, 0.05% Tween-20, pH 7.5; Bioconcept). The apparent dissociation (kd1) and association (kₐ₁) rate constants, the second reaction constants (kₐ₂ and kd2) and the apparent dissociation equilibrium constant (KD) were calculated with the Biacore analysis software (Biacore Evaluation software Version 3.2, Cytiva) using a two-state binding model and quality of the fits was monitored based on relative Chi2. The binding level was calculated as the maximum stability binding achieved normalized to the theoretical Rmax.
(§5) Binding kinetics to recombinant Cynomolgus monkey CD3ε (cCD3ε; His-Tag; SinoBiological) were measured as mentioned above for hCD3ε, with the exception that cCD3εwas used instead of hCD3ε.

[23] = target: T5, recombinant Cynomolgus monkey CD3ε …; assay: SPR; cCD3ε immobilized, two-state fit (Kd1)
Protocol: as §3, §4, §5

[24] = target: T3, recombinant human CD3 epsilon …; assay: SPR; hCD3ε immobilized, two-state fit (Ka1); remark: listed apart in the source
Protocol: as §2

[25] = target: T3, recombinant human CD3 epsilon …; assay: SPR; hCD3ε immobilized, two-state fit (Kd1)
Protocol: as §2

B1: PRO2592 (bispecific antibody)
chain 1: AQQLTQSPSSLSASVGDRVTITCQASQNVWNNNYLSWFQQKPGKPPKLLIVTASTLASGVSSRFSGSGSGTDFTLTISSLQPEDFATYYCAGGFSGEIRAFGCGTKVTVLGGGGGSGGGGSGGGGSGGGGSQSQLVESGGGLVQPGGSLRLSCAVSGIDLSRNAMSWVRQAPGKCLEWIGIILTSGSTYYASWAKGRFTISKTSTTLDLQMNSLRAEDTAVYFCVRGIASSSLKSFWGQGTLVTVSSGGGGSGGGGSAFELTQSPSSLSASVGDRVTITCQASESINSRLAWYQQKPGQPPKLLIYDASDLTSGVPSRFSGSGSGTDFTLTISSLQPEDFATYYCQGYGGSSTTTFGCGTKLTVLGGGSGGSDIQMTQSPSSLSASVGDRVTITCQSSQSVFSNNYLAWFQQKPGQSPKRLIYSASTLASGVPSRFSGSGSGTDFTLTISSLQPEDFATYYCLGSYACSSADCYVFGTGTKVTVLG
chain 2: AQQLTQSPSSLSASVGDRVTITCQASQNVWNNNYLSWFQQKPGKPPKLLIVTASTLASGVSSRFSGSGSGTDFTLTISSLQPEDFATYYCAGGFSGEIRAFGCGTKVTVLGGGGGSGGGGSGGGGSGGGGSQSQLVESGGGLVQPGGSLRLSCAVSGIDLSRNAMSWVRQAPGKCLEWIGIILTSGSTYYASWAKGRFTISKTSTTLDLQMNSLRAEDTAVYFCVRGIASSSLKSFWGQGTLVTVSSGGGGSGGGGSEVQLVESGGGLVQPGGSLRLSCAASGFSLSSYDMSWVRQAPGKGLAWIGASYASGPTYYASWAKGRFTISRDNSKNTVYLQMNSLRAEDTATYFCARGGWTGTSHSNIWGQGTLVTVSSGGGSGGGSGGGSGEVQLVESGGGLVQPGGSLRLSCAASGFSLSSYAMNWVRQAPGKCLEWIGHINAGDIAYYATWAKGRFTISRDNSKNTVYLQMNSLRAEDTAVYFCARGAGGFSTGPFKLWGQGTLVTVSS
notes: heterodimeric MATCH4, bivalent for ROR1, monovalent for CD3 and hSA; also called MATCH4 with 55-39-G02-sc06 / 19-04-A10-sc06 / 28-21-D09-sc04 / 55-39-G02-sc06
With B1 the “Avg. % max. lysis (JIMT-1)” value [1] was 24.9%, the “Avg. % max. lysis (MDA-MB-231)” value [1] was 47.1% and the “Avg. % max. lysis (SKOV3)” value [1] was 44.7%. For the same binder, the “Avg. EC50 (nM) CD8 T cell act. (MDA-MB-231)” value [1] was 0.011 nM, the “Avg. EC50 (nM) CD8 T cell act. (SKOV3)” value [1] was 1.6 nM and the “Avg. EC50 (nM) Cytotoxicity (JIMT-1)” value [1] was 3.3 nM. For the same binder, the “Avg. EC50 (nM) Cytotoxicity (MDA-MB-231)” value [1] was 0.008 nM, the “Avg. EC50 (nM) Cytotoxicity (SKOV3)” value [1] was 5.37 nM and the “Avg. % max. CD8 T cell act. (JIMT-1)” value [2] was 15.5%. The “Avg. % max. CD8 T cell act. (MDA-MB-231)” value [2] was 67%, the “Avg. % max. CD8 T cell act. (SKOV3)” value [2] was 54.7% and the “Avg. EC50 (nM) CD8 T cell act. (JIMT-1)” value [2] was 9.8 nM. For the same binder, the “Avg. EC50 (nM) CD8 T cell act. (MDA-MB-231)” value [2] was 0.011 nM, the “Avg. EC50 (nM) CD8 T cell act. (SKOV3)” value [2] was 1.6 nM and the “Avg. % max. CD4 T cell act. (JIMT-1)” value [3] was 23%. For the same binder, the “Avg. % max. CD4 T cell act. (MDA-MB-231)” value [3] was 79%, the “Avg. % max. CD4 T cell act. (SKOV3)” value [3] was 75% and the “Avg. EC50 (nM) CD4 T cell act. (JIMT-1)” value [3] was 9.1 nM. For the same binder, the “Avg. EC50 (nM) CD4 T cell act. (MDA-MB-231)” value [3] was 0.005 nM, the “Avg. EC50 (nM) CD4 T cell act. (SKOV3)” value [3] was 0.76 nM and the Kd [4] was 0.0287 nM. For the same binder, the koff [4] was 5.69e-05 s⁻¹, the kon [4] was 1.98e+06 M⁻¹ s⁻¹ and the Ka2 [5] was 0.0036 s⁻¹. The Kd [5] was 6.3 nM, the Kd2 [5] was 0.0036 s⁻¹ and the kon [6] was 430000 M⁻¹ s⁻¹. For the same binder, the koff [7] was 0.0055 s⁻¹, the EC50 [8] was 0.72 nM and the “Rel. maximum binding (MFIMATCH4/MFIPRO2213)” value [8] was 2.41. For the same binder, the “rel. EC50 (EC50, PRO2213/EC50, MATCH4)” value [8] was 0.94, the Kd [9] was 5 nM and the koff [9] was 0.00049 s⁻¹. For the same binder, the kon [9] was 98000 M⁻¹ s⁻¹ and the “EC50 (read off the curve)” value [10] was ~0.5 nM.

B2: PRO2668 (bispecific antibody)
chain: AFELTQSPSSLSASVGDRVTITCQASESINSRLAWYQQKPGQPPKLLIYDASDLTSGVPSRFSGSGSGTDFTLTISSLQPEDFATYYCQGYGGSSTTTFGCGTKLTVLGGGGGSEVQLVESGGGRVQPGGSLRLSCAASGFSLSSYDMSWVRQAPGKGLAWIGASYASGPTYYASWAKGRFTISRDNSKNTVYLQMNSLRAEDTATYFCARGGWTGTSHSNIWGQGTQVTVSSGGGGSGGGGSGGGGSGGGGSDIQMTQSPSSLSASVGDRVTITCQSSQSVFSNNYLAWFQQKPGQSPKRLIYSASTLASGVPSRFSGSGSGTDFTLTISSLQPEDFATYYCLGSYACSSADCYVFGTGTKVTVLGGGGGSEVQLVESGGGRVQPGGSLRLSCAASGFSLSSYAMNWVRQAPGKCLEWIGHINAGDIAYYATWAKGRFTISRDNSKNTVYLQMNSLRAEDTATYFCARGAGGFSTGPFKLWGQGTQVTVSSGGGGSGGGGSAQQLTQSPSSLSASVGDRVTITCQASQNVWNNNYLSWFQQKPGKPPKLLIVTASTLASGVSSRFSGSGSGTDFTLTISSLQPEDFATYYCAGGFSGEIRAFGCGTKVTVLGGGGGSGGGGSGGGGSGGGGSQSQLVESGGGRVQPGGSLRLSCAVSGLSLSRNAMSWVRQAPGKCLEWIGIILTSGSTYYASWAKGRFTISKDNSKNTVYLQMNSLRAEDTATYFCVRGIASSSLKSFWGQGTQVTVSS
notes: trispecific anti-ROR1 x hSA x CD3 scMATCH3, single chain, optimized variant of PRO2510; also called 19-04-A10-sc06(RTQ) scDb-o/28-21-D09-sc04 (RTQ) scDb-i/55-39-G02-sc05(RTQ)-scFv; RPO2668
Work on B2 yielded a Kd [11] of 0.28 nM, a koff [11] of 0.00056 s⁻¹ and a kon [11] of 2e+06 M⁻¹ s⁻¹. The Kd [12] was 1.8 nM, the ka2 [12] was 0.0049 s⁻¹ and the kd2 [12] was 0.0023 s⁻¹. It also gave a kon [13] of 2.5e+06 M⁻¹ s⁻¹, a koff [14] of 0.0047 s⁻¹ and an EC50 [15] of 0.74 nM. For the same binder, the “Rel. maximum binding (MFIscMATCH3/MFIPRO2213)” value [15] was 2.89 and the “EC50 (read off the curve)” value [16] was ~1 nM.

B3: PRO2271 (scFv, V domains shown)
VH: QSQLVESGGGLVQPGGSLRLSCAVSGIDLSRNAMSWVRQAPGKGLEWIGIILTSGSTYYASWAKGRFTISKTSTTLDLQMNSLRAEDTAVYFCVRGIASSSLKSFWGQGTLVTVSS
VL: AQQLTQSPSSLSASVGDRVTITCQASQNVWNNNYLSWFQQKPGKPPKLLIVTASTLASGVSSRFSGSGSGTDFTLTISSLQPEDFATYYCAGGFSGEIRAFGTGTKVTVLG
notes: scFv, T cell score optimized variant of PRO2062; also called 55-39-G02-sc03
Binder B3 has a Kd [17] of 0.364 nM, a koff [17] of 0.000578 s⁻¹ and a kon [17] of 1.59e+06 M⁻¹ s⁻¹. For the same binder, the “fold lower apparent binding affinity than PRO2062” value [18] was ~2 fold, the EC50 [19] was 0.63 nM and the “Rel. maximum binding (MFIscFv/MFIPRO2213)” value [19] was 0.87.

B4: PRO726 (scFv, V domains shown)
VH: EVQLVESGGGLVQPGGSLRLSCAASGFSLSSYDMSWVRQAPGKGLAWIGASYASGPTYYASWAKGRFTISRDNSKNTVYLQMNSLRAEDTATYFCARGGWTGTSHSNIWGQGTLVTVSS
VL: DIQMTQSPSSLSASVGDRVTITCQSSQSVFSNNYLAWFQQKPGQSPKRLIYSASTLASGVPSRFSGSGSGTDFTLTISSLQPEDFATYYCLGSYACSSADCYVFGTGTKVTVLG
notes: scFv; also called 28-21-D09-sc04; anti-CD3 scFv
With B4 the Kd [20] was 4.8 nM, the Kd [21] was 5.3 nM and the kon [22] was 820000 M⁻¹ s⁻¹. For the same binder, the koff [23] was 0.0062 s⁻¹, the kon [24] was 650000 M⁻¹ s⁻¹ and the koff [25] was 0.0055 s⁻¹.
